These results are taken from paper PMC3643605 (Nucleic Acids Research, 2013).

The labels stand for the following.
B2: C-terminal His6-tagged Neisseria HU protein (natural protein, UniProt P64389 1-89, looked up)
chain: MNKSELIEAIAQEADISKAAAQKALDATTNAVTTALKQGDTVTLVGFGTFYVGERAERQGRNPKTGEPLTIAAAKTPKFRAGKALKDAL

Where two headings read alike, the source gives them in different places.

For data set [1], the target named is T1, HU (C-His6) (Neisseria meningitidis, UniProt P64389 1-89).
T1 sequence: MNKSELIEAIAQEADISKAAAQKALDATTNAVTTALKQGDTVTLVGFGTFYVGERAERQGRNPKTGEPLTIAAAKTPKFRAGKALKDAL
The data set is described as follows: ITC. (In general: In ITC the heat of successive injections is recorded.)

Data set [2] deals with the molecule itself. The data set is described as follows: AUC.
Data set [3] deals with T2, DMP12 (Neisseria meningitidis conserved hypothetical protein NMB2123), tag-free (N. meningitidis, UniProt Q9JXC6 1-118).
T2 sequence (looked up): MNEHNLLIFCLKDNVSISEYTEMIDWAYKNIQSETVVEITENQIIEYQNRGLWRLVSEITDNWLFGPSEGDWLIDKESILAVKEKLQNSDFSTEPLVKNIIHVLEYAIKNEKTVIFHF
The data set is described as follows: ITC.

Data set [4] has as its target T2, DMP12 (Neisseria meningitidis conserved …). The experiment in a line: ITC. The source holds these as a separate data set.
Data set [5] deals with the molecule itself. The experiment in a line: SEC. (In gel filtration, larger molecules generally elute earlier.)
For data set [6], the target named is B2. The data set is described as follows: SEC.

B1: 8mer dsDNA (dsDNA)
DNA 1: CTCGCGAG
DNA 2: CTCGCGAG
Take B1: the Kd (as a rule, a measure of binding affinity in units of concentration) in data set [1] came out at 720 ± 60 nM.

Take B2: the results for the “stoichiometry N” value in data set [2], in data set [4] and in data set [5] were 2, 0.96 ± 0.01 and 2, respectively. Further, the Kd in data set [3] is 2810 ± 430 nM; in data set [4], 2820 ± 430 nM. For the same molecule, the dH in data set [4] is -6.17 ± 0.55 kcal/mol.

B3: N-terminal His10-tagged DMP12 (natural protein, N. meningitidis, UniProt Q9JXC6 1-118, looked up)
chain: MNEHNLLIFCLKDNVSISEYTEMIDWAYKNIQSETVVEITENQIIEYQNRGLWRLVSEITDNWLFGPSEGDWLIDKESILAVKEKLQNSDFSTEPLVKNIIHVLEYAIKNEKTVIFHF
As to B3, the stoichiometry N (in general, a count of units in the complex or per binding partner) in data set [6] was 1 DMP12 monomer per HU dimer.
